Data from patent US20170015749A1 (NATIONAL RESEARCH COUNCIL OF CANADA, published 2017).

Experiments:
[1] = target: T1, recombinant extracellular portion of human IGF1R (IGF1R^933-His) (human, UniProt P08069 31-933); test: SPR, Biacore 3000, human IGF1R immobilized on CM5, VHH as analyte, 1:1 model
T1 construct: It contains a furin cleavage site (RKRR) between the alpha and beta subunits, so the secreted protein may be two disulphide-linked chains; Immobilized by amine coupling on a CM5 chip; also called recombinant human IGF1R; human IGF1R fragment; not shown: His tag from vector pCDN4/myc-His
Procedure: (§1) Approximately 3000 Resonance Units (RU) of recombinant human IGF1R were immobilized on a Sensor chip CM5. Immobilization was carried out at a concentration of 10 μg/ml in 10 mM acetate at pH4.0 using the amine coupling kit supplied by the manufacturer. The remaining binding sites were blocked with 1 M ethanolamine pH 8.5. An ethanolamine blocked surface was used as a reference surface. For the binding studies, analyses were carried out at 25° C. in 10 mM HEPES, pH7.4 containing 150 mM NaCl, 3 mM EDTA and 0.005% surfactant P20 (Polyoxyethylenesorbitan; GE Healthcare). […] Surfaces were regenerated with 10 mM glycine pH 2.0 with a contact time of 24 seconds. Data were analyzed with BIAevaluation 4.1 software (GE Healthcare).

[2] = target: T2, recombinant human Insulin Receptor (R&D systems) (human, UniProt P06213-2 28-944, limits assumed); test: SPR, IGF1R-3 VHH (1 nM per text) injected over immobilised human Insulin Receptor surface (curve without asterisk)
T2 construct: extracellular domain; Immobilized on a CM5 chip at about 4000 RU; also called IR; recombinant extracellular portion of the human Insulin Receptor
T2 sequence (P06213 other isoform, or with tags, fused parts or gaps limits assumed): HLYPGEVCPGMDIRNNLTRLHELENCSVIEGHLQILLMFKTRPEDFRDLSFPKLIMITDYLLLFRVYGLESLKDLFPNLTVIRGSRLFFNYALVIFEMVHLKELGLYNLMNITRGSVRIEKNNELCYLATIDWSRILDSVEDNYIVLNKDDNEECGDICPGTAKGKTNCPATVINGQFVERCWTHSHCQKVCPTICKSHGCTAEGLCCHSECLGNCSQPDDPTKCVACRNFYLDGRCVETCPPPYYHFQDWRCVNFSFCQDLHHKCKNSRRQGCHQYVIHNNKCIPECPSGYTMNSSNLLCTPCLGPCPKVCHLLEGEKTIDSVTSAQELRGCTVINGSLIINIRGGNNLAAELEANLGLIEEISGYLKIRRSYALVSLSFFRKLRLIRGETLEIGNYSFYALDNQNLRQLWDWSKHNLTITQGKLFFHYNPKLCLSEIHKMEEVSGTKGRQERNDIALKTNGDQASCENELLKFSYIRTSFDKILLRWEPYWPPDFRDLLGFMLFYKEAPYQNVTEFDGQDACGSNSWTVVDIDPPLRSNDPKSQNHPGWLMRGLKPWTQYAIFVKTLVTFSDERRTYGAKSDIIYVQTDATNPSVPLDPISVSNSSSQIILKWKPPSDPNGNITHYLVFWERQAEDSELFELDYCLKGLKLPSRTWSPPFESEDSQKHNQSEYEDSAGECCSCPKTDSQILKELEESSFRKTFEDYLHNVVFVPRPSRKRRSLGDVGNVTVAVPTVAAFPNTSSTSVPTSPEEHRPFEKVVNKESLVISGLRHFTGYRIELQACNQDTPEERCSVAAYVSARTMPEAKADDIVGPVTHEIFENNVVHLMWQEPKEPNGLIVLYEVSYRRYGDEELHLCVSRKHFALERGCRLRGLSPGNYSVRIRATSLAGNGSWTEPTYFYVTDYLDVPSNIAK
Procedure: as §1

| Binder | Kd [1] [nM] | koff [1] [s⁻¹] | binding result [2] |
| --- | --- | --- | --- |
| IGF1R-3_H4 (VHH, Humanized variant of IGF1R-3, monomeric VHH; not shown: C-terminal tag from expression vector pSJF2H (protein purified by IMAC)) VHH: QVQLVESGGGLVQPGGSLRLSCAASEYPSNFYAMSWFRQAPGKEREFVAGVSRDGLTTLYADSVKGRFTMSRDNSKNTVYLQMNSLRAEDTAVYYCAIVITGVWNKVDVNSRSYHYWGQGTLVTVSS | 1.4 | 0.00055 | – |
| IGF1R-3_H1 (VHH, Humanized variant of IGF1R-3, monomeric VHH; not shown: C-terminal tag from expression vector pSJF2H (protein purified by IMAC)) VHH: EVQLVESGGGLVQPGGSLRLSCAASEYPSNFYAMSWVRQAPGKGLEWVSGVSRDGLTTLYADSVKGRFTISRDNSKNTLYLQMNSLRAEDTAVYYCAIVITGVWNKVDVNSRSYHYWGQGTLVTVSS | 47 | 0.0023 | – |
| IGF1R-3_H2 (VHH, Humanized variant of IGF1R-3, monomeric VHH; not shown: C-terminal tag from expression vector pSJF2H (protein purified by IMAC)) VHH: QVQLVESGGGLVQPGGSLRLSCAASEYPSNFYAMSWVRQAPGKGLEWVAGVSRDGLTTLYADSVKGRFTMSRDNSKNTVYLQMNSLRAEDTAVYYCAIVITGVWNKVDVNSRSYHYWGQGTLVTVSS | 6.6 | 0.00072 | – |

Further binders by falling Kd [1], results first:

| Kd [1] [nM] | koff [1] [s⁻¹] | binding result [2] | Binder |
| --- | --- | --- | --- |
| 7.5 | 0.0025 | – | IGF1R-3_H5 (VHH, Humanized variant of IGF1R-3, monomeric VHH; not shown: C-terminal tag from expression vector pSJF2H (protein purified by IMAC)) VHH: EVQLVESGGGLVQPGGSLRLSCAASEYPSNFYAMSWFRQAPGKEREFVSGVSRDGLTTLYADSVKGRFTISRDNSKNTLYLQMNSLRAEDTAVYYCAIVITGVWNKVDVNSRSYHYWGQGTLVTVSS |
| 1.3 | 0.00013 | no binding (tested: 1 nM) | IGF1R-3 VHH (VHH, Llama VHH expressed in E. coli TG1 from pSJF2H and tested as monomer; also called anti-IGF1R VHH IGF1R-3; IGF1R VHH; not shown: C-terminal tag from expression vector pSJF2H (protein purified by IMAC)) VHH: QVKLEESGGGLVQAGGSLRLSCVASEYPSNFYAMSWFRQAPGKEREFVAGVSRDGLTTLYADSVKGRFTMSRDNAKNTVDLQMNSVKAEDTAVYYCAIVITGVWNKVDVNSRSYHYWGQGTQVTVSS |
